{"source": "the RNAGym collection of RNA variant scans (doi:10.7554/elife.80360)", "parents": {"B1": {"name": "Hairpin Ribozyme (parent)", "chain": "GUCCUCUUUCACGUGCGCGUGAAAGAGAGAAGUGAACCAGAGAAACACACGUUGUGGUAUAUUACCUGGUA"}}}
{"variants_of": "B1", "assay": "self-cleavage, relative activity (ratio to wild type); higher = more cleavage; co-transcriptional"}
{"variant": "U14C G69C", "self-cleavage": 0.3}
{"variant": "U14G A26G", "self-cleavage": 0.781}
{"variant": "G15A A39U", "self-cleavage": 0.351}
{"variant": "G15A A39C", "self-cleavage": 0.508}
{"variant": "G15A U67A", "self-cleavage": 0.188}
{"variant": "U14G G29C", "self-cleavage": 0.169}
{"variant": "U14C G57A", "self-cleavage": 0.215}
{"variant": "U14C G57C", "self-cleavage": 0.0473}
{"variant": "G15A U20C", "self-cleavage": 0.864}
{"variant": "G15A U20A", "self-cleavage": 0.847}
{"variant": "U14G A35G", "self-cleavage": 0.715}
{"variant": "U14G A35U", "self-cleavage": 0.49}
{"variant": "U14G A35C", "self-cleavage": 0.805}
{"variant": "G15A U70C", "self-cleavage": 0.759}
{"variant": "U14G A41U", "self-cleavage": 1.05}
{"variant": "G15A G17U", "self-cleavage": 1.05}
{"variant": "G15A G54U", "self-cleavage": 0.737}
{"variant": "G15C A71U", "self-cleavage": 0.793}
{"variant": "G15A G34U", "self-cleavage": 1.26}
{"variant": "G15A G34A", "self-cleavage": 1.11}
{"variant": "U14G G15A", "self-cleavage": 0.932}
{"variant": "U14G G68A", "self-cleavage": 0.32}
{"variant": "U14G G68U", "self-cleavage": 0.333}
{"variant": "U14G G40A", "self-cleavage": 0.289}
{"variant": "U14G G40U", "self-cleavage": 0.2}
{"variant": "G15C G40U", "self-cleavage": 0.23}
{"variant": "G15C G40C", "self-cleavage": 0.125}
{"variant": "G15C A30U", "self-cleavage": 0.293}
{"variant": "G15A G27A", "self-cleavage": 0.541}
{"variant": "U14G U53C", "self-cleavage": 0.925}
{"variant": "U14G U55C", "self-cleavage": 0.286}
{"variant": "U14G U55A", "self-cleavage": 0.0772}
{"variant": "U14C U33G", "self-cleavage": 0.191}
{"variant": "U14C U33C", "self-cleavage": 0.0775}
{"variant": "U14G G42A", "self-cleavage": 0.163}
{"variant": "U14C G54C", "self-cleavage": 0.397}
{"variant": "G15C A31G", "self-cleavage": 0.692}
{"variant": "G15C A31U", "self-cleavage": 0.105}
{"variant": "G15A A61G", "self-cleavage": 0.18}
{"variant": "U14G C18G", "self-cleavage": 0.694}
{"variant": "U14G C18A", "self-cleavage": 0.941}
{"variant": "U14G A22C", "self-cleavage": 0.75}
{"variant": "G15C C48G", "self-cleavage": 0.109}
{"variant": "G15C C50G", "self-cleavage": 0.184}
{"variant": "G15C C50U", "self-cleavage": 0.47}
{"variant": "G15C C50A", "self-cleavage": 0.169}
{"variant": "G15C C18A", "self-cleavage": 1.18}
{"variant": "G15C A44G", "self-cleavage": 0.146}
{"variant": "G15A G25A", "self-cleavage": 0.576}
{"variant": "G15C G57A", "self-cleavage": 0.24}
{"variant": "U14G U60C", "self-cleavage": 1.23}
{"variant": "U14G G56A", "self-cleavage": 0.103}
{"variant": "G15A U52C", "self-cleavage": 0.916}
{"variant": "U14G U67G", "self-cleavage": 0.243}
{"variant": "G15A C65A", "self-cleavage": 0.863}
{"variant": "G15C A59G", "self-cleavage": 0.104}
{"variant": "G15A G42U", "self-cleavage": 0.301}
{"variant": "G15A G42C", "self-cleavage": 0.294}
{"variant": "U14C U58G", "self-cleavage": 0.545}
{"variant": "U14G C16U", "self-cleavage": 1.06}
{"variant": "U14G C16G", "self-cleavage": 0.548}
{"variant": "U14G C65G", "self-cleavage": 0.213}
{"variant": "U14C U53A", "self-cleavage": 1.18}
{"variant": "U14C U53C", "self-cleavage": 0.675}
{"variant": "U14C U53G", "self-cleavage": 0.936}
{"variant": "U14G A24C", "self-cleavage": 0.887}
{"variant": "U14G A44U", "self-cleavage": 0.138}
{"variant": "U14G G21U", "self-cleavage": 0.625}
{"variant": "G15A U60A", "self-cleavage": 0.767}
{"variant": "U14G U52A", "self-cleavage": 1.02}
{"variant": "U14G U52C", "self-cleavage": 0.966}
{"variant": "U14C G56A", "self-cleavage": 0.143}
{"variant": "U14G G51U", "self-cleavage": 1.02}
{"variant": "G15A A24U", "self-cleavage": 0.688}
{"variant": "G15C C16A", "self-cleavage": 1.1}
{"variant": "G15A U53G", "self-cleavage": 0.687}
{"variant": "G15A U53A", "self-cleavage": 0.862}
{"variant": "G15A A28U", "self-cleavage": 0.588}
{"variant": "U14G G57C", "self-cleavage": 0.0955}
{"variant": "U14G C38G", "self-cleavage": 0.119}
{"variant": "U14G U62G", "self-cleavage": 0.106}
{"variant": "U14C G68A", "self-cleavage": 0.234}
{"variant": "U14C G68U", "self-cleavage": 0.13}
{"variant": "G15A C46G", "self-cleavage": 0.0897}
{"variant": "G15A C46A", "self-cleavage": 0.132}
{"variant": "G15A C18G", "self-cleavage": 0.886}
{"variant": "G15A A23G", "self-cleavage": 0.862}
{"variant": "U14C G51C", "self-cleavage": 0.586}
{"variant": "G15C G25C", "self-cleavage": 0.687}
{"variant": "G15A G68A", "self-cleavage": 0.362}
{"variant": "G15A G68C", "self-cleavage": 0.219}
{"variant": "U14G A30G", "self-cleavage": 0.0762}
{"variant": "U14G A47G", "self-cleavage": 0.157}
{"variant": "G15C A43G", "self-cleavage": 0.11}
{"variant": "G15A C48G", "self-cleavage": 0.0967}
{"variant": "G15C", "self-cleavage": 1.03}
{"variant": "G15A", "self-cleavage": 0.906}
{"variant": "G15A U33G", "self-cleavage": 0.136}
{"variant": "U14C U60G", "self-cleavage": 0.727}
{"variant": "G15C A47C", "self-cleavage": 0.295}
{"variant": "G15C G54U", "self-cleavage": 0.647}
{"variant": "U14G A28U", "self-cleavage": 0.39}
{"variant": "U14G C46U", "self-cleavage": 0.21}
{"variant": "U14G C46A", "self-cleavage": 0.113}
{"variant": "G15A G21C", "self-cleavage": 0.798}
{"variant": "G15A G21A", "self-cleavage": 0.831}
{"variant": "G15C C46A", "self-cleavage": 0.136}
{"variant": "G15C C38U", "self-cleavage": 0.6}
{"variant": "U14G A59G", "self-cleavage": 0.121}
{"variant": "G15C G42C", "self-cleavage": 0.369}
{"variant": "G15A A64C", "self-cleavage": 0.171}
{"variant": "G15A A64U", "self-cleavage": 0.233}
{"variant": "U14G G19C", "self-cleavage": 0.842}
{"variant": "U14G G19A", "self-cleavage": 0.651}
{"variant": "U14G A39C", "self-cleavage": 0.393}
{"variant": "U14C U67G", "self-cleavage": 0.344}
{"variant": "U14C U67A", "self-cleavage": 0.151}
{"variant": "U14C G40U", "self-cleavage": 0.188}
{"variant": "U14C G40C", "self-cleavage": 0.156}
{"variant": "G15A U62A", "self-cleavage": 0.177}
{"variant": "G15A U62G", "self-cleavage": 0.109}
{"variant": "U14G C50A", "self-cleavage": 0.307}
{"variant": "U14G G34A", "self-cleavage": 1.05}
{"variant": "G15A A31C", "self-cleavage": 0.151}
{"variant": "G15C A41U", "self-cleavage": 1.28}
{"variant": "G15C A41C", "self-cleavage": 1.28}
{"variant": "G15C A41G", "self-cleavage": 1.04}
{"variant": "G15C C66A", "self-cleavage": 0.144}
{"variant": "U14G U70A", "self-cleavage": 0.823}
{"variant": "G15C A22G", "self-cleavage": 0.746}
{"variant": "G15C A22C", "self-cleavage": 0.846}
{"variant": "G15C G56A", "self-cleavage": 0.129}
{"variant": "G15A G32C", "self-cleavage": 0.174}
{"variant": "U14G G27A", "self-cleavage": 0.189}
{"variant": "G15C G27A", "self-cleavage": 0.555}
{"variant": "G15A A45U", "self-cleavage": 0.204}
{"variant": "G15A A45C", "self-cleavage": 0.0834}
{"variant": "U14G G69A", "self-cleavage": 0.303}
{"variant": "G15A A41G", "self-cleavage": 0.92}
{"variant": "U14G G54U", "self-cleavage": 0.491}
{"variant": "U14G G54C", "self-cleavage": 0.315}
{"variant": "U14G A45U", "self-cleavage": 0.147}
{"variant": "U14G A49C", "self-cleavage": 0}
{"variant": "U14G A23U", "self-cleavage": 0.68}
{"variant": "U14G A23C", "self-cleavage": 0.754}
{"variant": "G15A G57U", "self-cleavage": 0.3}
{"variant": "U14C U70C", "self-cleavage": 1.15}
{"variant": "U14G G32C", "self-cleavage": 0.0712}
{"variant": "U14G U58G", "self-cleavage": 0.464}
{"variant": "G15C A45U", "self-cleavage": 0.191}
{"variant": "G15C A45G", "self-cleavage": 0.194}
{"variant": "G15A A71G", "self-cleavage": 0.943}
{"variant": "G15A A71C", "self-cleavage": 1.29}
{"variant": "G15A G29U", "self-cleavage": 0.0945}
{"variant": "G15C A64U", "self-cleavage": 0.186}
{"variant": "G15A C66A", "self-cleavage": 0.129}
{"variant": "G15C A26G", "self-cleavage": 1.03}
{"variant": "U14G A31U", "self-cleavage": 0.119}
{"variant": "U14G A64G", "self-cleavage": 0.407}
{"variant": "G15C G19U", "self-cleavage": 0.953}
{"variant": "G15C G19C", "self-cleavage": 0.786}
{"variant": "G15C C65A", "self-cleavage": 0.928}
{"variant": "U14G C48G", "self-cleavage": 0.178}
{"variant": "G15C G21A", "self-cleavage": 0.76}
{"variant": "U14G A36C", "self-cleavage": 0.729}
{"variant": "G15A A36G", "self-cleavage": 1.08}
{"variant": "G15A A36C", "self-cleavage": 0.815}
